According to patent US20130019345A1 (NATIONAL UNIVERSITY CORPORATION NARA INSTITUTE OF SCIENCE …, published 2013):
Substitutions are numbered along the chain they refer to. Numbers in names are those of the source. Each block holds one molecule with its values, some of them ahead of it. Where no end group is shown, it is not given here. [ ]: non-standard residue; d: D form. pS = N[C@@H](COP(=O)(O)O)C(=O)O

Tests used:
[1] = biological target: 14-3-3 protein (endogenous rice OsGF14; isoform not specified); test: cell-based or functional assay
[2] = biological target: T1, GST-fused Hd3a protein (full-length Hd3a) (rice, UniProt Q93WI9 1-179); test: in vitro GST pull-down, GST-Hd3a on glutathione resin, SDS-PAGE
T1 construct: also called GST-Hd3a; not shown: GST (glutathione S-transferase) fusion partner
T1 sequence (Q93WI9 whole entry, the tested form may be a part): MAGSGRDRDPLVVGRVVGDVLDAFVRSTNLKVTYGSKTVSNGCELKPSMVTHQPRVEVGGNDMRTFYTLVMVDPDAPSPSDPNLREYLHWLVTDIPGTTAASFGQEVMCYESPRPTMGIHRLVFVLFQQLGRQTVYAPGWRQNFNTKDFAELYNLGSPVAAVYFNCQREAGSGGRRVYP
Method: After that, the resin was washed with a phosphate buffer (pH 6.8) containing 50 mM KCl and 1 mM DTT to remove a free GST-fused protein unbound to the resin. The isolated and purified GST protein bound to the resin was used as a negative control. […] After that, the resins were washed with a phosphate buffer (pH 6.8) containing 50 mM KCl and 1 mM DTT to remove a free GST-GF14c polypeptide unbound to the resins. Each of the bound proteins was eluted with a phosphate buffer (pH 6.8) containing 50 mM glutathione, 50 mM KCl, and 1 mM DTT and confirmed by SDS polyacrylamide electrophoresis.

[3] = biological target: T2, GF14c residues 1 to 235 (crystallization construct) (rice, UniProt Q6ZKC0 1-235); test: X-ray crystal structure of the florigen activation complex; peptide soaked into Hd3a-GF14c crystals
T2 construct: Expressed in E. coli and purified; co-crystallized with Hd3a 6-170; also called 14-3-3 protein
T2 sequence: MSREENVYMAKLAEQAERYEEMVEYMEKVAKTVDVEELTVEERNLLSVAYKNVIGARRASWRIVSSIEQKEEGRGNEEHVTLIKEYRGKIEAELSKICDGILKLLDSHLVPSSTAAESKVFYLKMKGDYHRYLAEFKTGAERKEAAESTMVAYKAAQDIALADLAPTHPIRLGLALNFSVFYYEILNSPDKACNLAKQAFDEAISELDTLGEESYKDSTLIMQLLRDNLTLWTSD
Method: The crystallization of the complex was performed at 4° C. by a sitting drop method using a mixture of 1 μl of the protein solution (protein concentration: 10 mg/mL) and 1 μl of a precipitant solution (0.1 M HEPES (pH 7.5), 0.2 M ammonium sulfate, and 25% PEG 3350).

[4] = biological target: T3, OsGF14b mutant E218A, yeast two-hybrid fusion (rice, UniProt Q7XTE8 1-262); test: yeast two-hybrid, growth on selective medium
T3 construct: not shown: yeast two-hybrid fusion partner encoded by pBTM116-GW or pVP16-GW, and its linker
T3 sequence: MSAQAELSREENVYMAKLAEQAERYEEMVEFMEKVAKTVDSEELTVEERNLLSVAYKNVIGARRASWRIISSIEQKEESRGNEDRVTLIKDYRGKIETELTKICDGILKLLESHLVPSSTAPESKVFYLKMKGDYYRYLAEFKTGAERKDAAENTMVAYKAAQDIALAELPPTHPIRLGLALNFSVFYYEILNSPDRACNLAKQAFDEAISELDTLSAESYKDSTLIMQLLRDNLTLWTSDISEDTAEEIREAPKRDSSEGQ
Method: (§1) For an interaction assay, pBTM116 and pVP16 were converted to pBTM116-GW and pVP16-GW, respectively, using a Gateway vector conversion system (Invitrogen) according to the manufacturer's instructions. Yeast cells were grown at 30° C. for 5 days using an SC medium (without uracil, tryptophan, leucine, and histidine), the medium containing added histidine or 1 to 10 mM 3-aminotriazole (+His or +3-AT). The concentration of 3-AT was determined by a bait-prey combination.
(§2) Various mutant proteins were produced by constructing plasmids as described below. […] The PCR-amplified fragments were cloned into a pENTR/D-TOPO cloning vector (Invitrogen) to obtain entry clones.

[5] = biological target: T4, OsGF14b mutant I210A, yeast two-hybrid fusion (rice, UniProt Q7XTE8 1-262); test: yeast two-hybrid, growth on selective medium
T4 construct: not shown: yeast two-hybrid fusion partner encoded by pBTM116-GW or pVP16-GW, and its linker
T4 sequence: T3 sequence with I210A, A218E
Method: as §1, §2

[6] = biological target: T5, OsGF14b mutant D233A, yeast two-hybrid fusion (rice, UniProt Q7XTE8 1-262); test: yeast two-hybrid, growth on selective medium
T5 construct: not shown: two-hybrid fusion partner encoded by pBTM116-GW or pVP16-GW
T5 sequence: T3 sequence with A218E, D233A
Method: as §1, §2

[7] = biological target: T6, OsGF14b mutant Y221A, yeast two-hybrid fusion (rice, UniProt Q7XTE8 1-262); test: yeast two-hybrid, growth on selective medium
T6 construct: not shown: two-hybrid fusion partner encoded by pBTM116-GW or pVP16-GW
T6 sequence: T3 sequence with A218E, Y221A
Method: as §1, §2

[8] = biological target: T7, OsGF14b mutant F206A, yeast two-hybrid fusion (rice, UniProt Q7XTE8 1-262); test: yeast two-hybrid, growth on selective medium
T7 construct: not shown: yeast two-hybrid fusion partner encoded by pBTM116-GW or pVP16-GW, and its linker
T7 sequence: T3 sequence with F206A, A218E
Method: as §1, §2

[9] = biological target: T8, OsGF14b mutant R232A, yeast two-hybrid fusion (rice, UniProt Q7XTE8 1-262); test: yeast two-hybrid, growth on selective medium
T8 construct: not shown: two-hybrid fusion partner encoded by pBTM116-GW or pVP16-GW
T8 sequence: T3 sequence with A218E, R232A
Method: as §1, §2

[10] = biological target: T9, OsGF14b (Os04g0462500), full-length, yeast two-hybrid fusion (rice, UniProt Q7XTE8 1-262); test: yeast two-hybrid, growth on selective medium
T9 construct: not shown: two-hybrid fusion partner encoded by pBTM116-GW or pVP16-GW
T9 sequence: T3 sequence with A218E
Method: as §1, §2

[11] = biological target: T10, Hd3a, full-length, Vn- or Vc-tagged (BiFC) (rice, UniProt Q93WI9 1-179); test: BiFC (Venus) in rice Oc protoplasts (endogenous 14-3-3 proteins present)
T10 construct: it is put first only for listing; not shown: Vn or Vc fragment of Venus (BiFC tag), at the N- or C-terminal
T10 sequence (Q93WI9 whole entry, the tested form may be a part): as the sequence (Q93WI9 whole entry, the tested form may be a part) above
Method: (§3) (1) The transformation of rice Oc protoplasts was performed by a method described in Kyozuka and Shimamoto 1991, Plant J. 6, 271 (1994), Non Patent Literature 1, or the like. Fluorescent protein expression vectors having introduced therein various proteins were introduced into a protoplast suspension (2×10⁷ protoplasts/ml) by a PEG method (PEG-mediated method). After incubation at 30° C. for 24 hours, transformed protoplasts were obtained and used for microscopic observation.
(§4) Therefore, the number of cells showing higher values than the above-mentioned values was scored.

[12] = biological target: T11, GF14b, full-length, Vn- or Vc-tagged (BiFC) (rice, UniProt Q7XTE8 1-262); test: BiFC (Venus) in rice Oc protoplasts
T11 construct: it is put first only for listing; also called OsGF14b; not shown: Vn or Vc fragment of Venus (BiFC tag), at the N- or C-terminal
T11 sequence: T3 sequence with A218E
Method: as §3, §4

Molecule: Hd3a-GFP-fused protein (full-length Hd3a coding region conjugated to GFP) (from UniProt Q93WI9 1-179)
Days to flowering (days) of transgenic rice [1]: 19.6 days

B1: OsFD1 having a mutation of S192E in a region of positions 147 to 195 in SEQ ID NO: 3, not fused with GST (other)
chain: ARVNNLETEVEQLKQENKMLRVKYEQLRKTVEVPVPVRRTLQRVLEAPF
binding result [2]: no binding

B2: OsFD1 polypeptide, residues 187 to 195, chemically synthesized (peptide)
peptide: LQRVL[pS]APF
notes: Soaked at 2 mM into Hd3a-GF14c crystals
binding result [3]: binds

B4: OsFD1, full-length, Vn- or Vc-tagged (BiFC) (other)
chain: MAMEDDEDMWANTSSPSASPPRPRGFISTALSLNSTHLQGLLPSSFVDAAASPCHASGNNNGGGDGRNAAPMSSIFFASASYHQQQHHLPAPAPLDGAILPARRFGLDMCAAAAAAPAGVPAAGDRRKRRMIKNRESAARSRARKQARVNNLETEVEQLKQENKMLRVKYEQLRKTVEVPVPVRRTLQRVLSAPF
notes: it is put first only for listing; not shown: Vn or Vc fragment of Venus (BiFC tag), at the N- or C-terminal
binding result [11]: binds
binding result [12]: binds

The remaining lines, values ahead:

Days to flowering (days) of transgenic rice [1]: 44.2 days
Molecule: Hd3a(R64G)-GFP (prolC::Hd3a(R64G)::GFP) (from UniProt Q93WI9 1-179)

Days to flowering (days) of transgenic rice [1]: 58.8 days
Molecule: Hd3a(R64G/R132A)-GFP (prolC::Hd3a(R64G/R132A)::GFP) (from UniProt Q93WI9 1-179)

binding result [4]: binds
binding result [5]: binds
binding result [6]: binds
binding result [7]: binds
binding result [8]: binds
binding result [9]: binds
binding result [10]: binds
B3: OsFD1 (Os09g0540800), full-length, yeast two-hybrid fusion (other)
chain: B4 chain
notes: not shown: two-hybrid fusion partner encoded by pBTM116-GW or pVP16-GW
